Measured values from publication PMC12751052.

Target: AcrIII-2 (second anti-CRISPR of type III systems), viral SAVED protein of Thermocrinis Great Boiling Spring virus (Thermocrinis Great Boiling Spring virus)
Assay: crystal structure; apo AcrIII-2, X-ray, data to 1.79 Å; crystals from 1.2 M sodium dihydrogen phosphate, 0.8 M dipotassium hydrogen phosphate, 0.2 M lithium sulphate, 0.1 M CAPS pH 10, 293 K

AcrIII-2 (second anti-CRISPR of type III systems), viral SAVED protein of Thermocrinis Great Boiling Spring virus (natural protein)
stoichiometry N: 2
